Patent publication US20240182563A1 (GENOME, published 2024)

T1: human CNTN4-10xHis (human, UniProt Q8IWV2 19-1000)
T1 sequence: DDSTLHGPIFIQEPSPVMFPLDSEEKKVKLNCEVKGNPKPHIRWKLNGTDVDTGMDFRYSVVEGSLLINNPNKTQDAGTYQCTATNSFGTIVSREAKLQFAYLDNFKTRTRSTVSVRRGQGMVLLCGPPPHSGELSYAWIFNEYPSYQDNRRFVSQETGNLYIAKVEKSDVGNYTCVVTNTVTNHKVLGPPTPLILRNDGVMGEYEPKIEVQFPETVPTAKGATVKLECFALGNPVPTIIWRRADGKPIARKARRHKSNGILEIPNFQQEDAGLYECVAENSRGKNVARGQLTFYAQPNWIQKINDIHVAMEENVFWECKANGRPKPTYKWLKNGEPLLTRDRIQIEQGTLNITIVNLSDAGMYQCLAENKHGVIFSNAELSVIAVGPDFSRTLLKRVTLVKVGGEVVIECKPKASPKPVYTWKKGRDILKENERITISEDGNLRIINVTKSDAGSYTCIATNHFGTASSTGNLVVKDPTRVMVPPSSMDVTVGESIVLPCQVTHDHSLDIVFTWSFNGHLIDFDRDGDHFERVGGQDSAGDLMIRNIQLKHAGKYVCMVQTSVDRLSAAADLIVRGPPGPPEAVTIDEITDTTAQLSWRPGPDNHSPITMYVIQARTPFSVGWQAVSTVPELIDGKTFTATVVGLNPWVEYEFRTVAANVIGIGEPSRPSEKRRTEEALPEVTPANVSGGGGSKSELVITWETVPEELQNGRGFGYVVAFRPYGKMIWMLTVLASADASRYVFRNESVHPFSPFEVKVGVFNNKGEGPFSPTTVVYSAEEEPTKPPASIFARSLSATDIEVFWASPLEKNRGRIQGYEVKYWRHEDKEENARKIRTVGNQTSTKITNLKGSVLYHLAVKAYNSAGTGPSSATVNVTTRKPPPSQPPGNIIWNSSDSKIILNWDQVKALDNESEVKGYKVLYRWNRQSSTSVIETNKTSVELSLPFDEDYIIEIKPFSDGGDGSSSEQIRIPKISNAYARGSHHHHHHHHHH

T2: mouse CNTN4-10xHis (mouse, UniProt Q69Z26 19-1000)
T2 sequence: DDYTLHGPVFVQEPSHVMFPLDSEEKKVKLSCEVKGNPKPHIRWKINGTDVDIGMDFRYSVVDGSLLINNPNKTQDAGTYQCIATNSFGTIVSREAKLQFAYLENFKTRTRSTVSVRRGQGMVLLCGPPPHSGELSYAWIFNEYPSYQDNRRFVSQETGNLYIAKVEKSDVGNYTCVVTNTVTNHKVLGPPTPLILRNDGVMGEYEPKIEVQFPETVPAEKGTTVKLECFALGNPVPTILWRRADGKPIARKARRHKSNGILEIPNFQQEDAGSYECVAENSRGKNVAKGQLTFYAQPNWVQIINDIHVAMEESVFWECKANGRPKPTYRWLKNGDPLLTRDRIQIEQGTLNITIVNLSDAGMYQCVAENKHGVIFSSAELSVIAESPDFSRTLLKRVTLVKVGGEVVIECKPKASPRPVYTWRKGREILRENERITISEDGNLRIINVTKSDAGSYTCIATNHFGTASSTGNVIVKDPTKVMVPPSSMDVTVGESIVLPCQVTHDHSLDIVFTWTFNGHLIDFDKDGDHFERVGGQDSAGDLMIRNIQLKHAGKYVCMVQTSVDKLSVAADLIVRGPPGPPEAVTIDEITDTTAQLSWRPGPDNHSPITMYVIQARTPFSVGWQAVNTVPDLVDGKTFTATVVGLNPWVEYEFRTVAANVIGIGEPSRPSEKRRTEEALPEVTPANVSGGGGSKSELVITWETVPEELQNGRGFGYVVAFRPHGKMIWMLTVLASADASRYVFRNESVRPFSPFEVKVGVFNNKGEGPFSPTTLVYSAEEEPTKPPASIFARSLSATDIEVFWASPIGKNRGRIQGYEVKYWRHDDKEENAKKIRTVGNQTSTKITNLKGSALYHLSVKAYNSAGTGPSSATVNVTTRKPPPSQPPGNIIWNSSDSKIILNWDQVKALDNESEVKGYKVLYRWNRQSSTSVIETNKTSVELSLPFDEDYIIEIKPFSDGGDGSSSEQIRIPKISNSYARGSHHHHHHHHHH

T3: Human CNTN-4 protein (human, UniProt Q8IWV2 19-1000, limits assumed)
T3 construct: soluble antigen run over the captured antibody; also called human CNTN4 (SPR analyte)
T3 sequence (looked up): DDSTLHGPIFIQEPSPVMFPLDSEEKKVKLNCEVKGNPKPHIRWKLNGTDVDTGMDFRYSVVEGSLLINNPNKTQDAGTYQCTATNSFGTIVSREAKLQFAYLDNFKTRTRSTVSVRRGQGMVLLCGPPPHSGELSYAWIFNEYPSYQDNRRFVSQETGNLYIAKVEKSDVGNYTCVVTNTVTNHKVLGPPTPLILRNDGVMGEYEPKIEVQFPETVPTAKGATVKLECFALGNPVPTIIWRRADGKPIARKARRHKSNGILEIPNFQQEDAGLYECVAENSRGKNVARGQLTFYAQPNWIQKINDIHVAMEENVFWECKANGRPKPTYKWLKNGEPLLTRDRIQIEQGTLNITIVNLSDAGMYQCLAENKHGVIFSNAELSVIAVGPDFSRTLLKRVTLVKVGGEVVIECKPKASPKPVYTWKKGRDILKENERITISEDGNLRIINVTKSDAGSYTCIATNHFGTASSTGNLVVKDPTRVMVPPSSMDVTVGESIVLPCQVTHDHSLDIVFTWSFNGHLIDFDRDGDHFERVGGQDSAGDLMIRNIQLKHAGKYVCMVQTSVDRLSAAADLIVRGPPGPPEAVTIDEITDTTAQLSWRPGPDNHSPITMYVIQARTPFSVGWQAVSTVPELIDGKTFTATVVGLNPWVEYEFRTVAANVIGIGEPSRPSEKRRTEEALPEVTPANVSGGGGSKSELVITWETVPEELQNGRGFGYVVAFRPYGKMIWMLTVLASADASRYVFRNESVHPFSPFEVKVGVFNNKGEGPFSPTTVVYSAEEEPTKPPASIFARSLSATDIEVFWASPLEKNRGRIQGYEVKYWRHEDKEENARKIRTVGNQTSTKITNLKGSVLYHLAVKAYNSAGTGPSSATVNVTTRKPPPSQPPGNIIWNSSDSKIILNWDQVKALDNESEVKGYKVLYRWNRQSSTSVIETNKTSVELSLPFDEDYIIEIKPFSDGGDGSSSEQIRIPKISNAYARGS


Columns and labels:
human CNTN4-10xHis = molecular target: T1, human CNTN4-10xHis; assay: ELISA, plate coated with CNTN4-10xHis, anti-human Fc-HRP
Protocol: (§1) The LAH2, L1H2, and L2H2 antibodies prepared in Example 3.1 were subjected to an ELISA test together with A-01. An ELISA plate was coated with 200 ng of antigens (human CNTN4-10xHis or mouse CNTN4-10xHis). For antibody binding, antibodies were serially diluted from a maximum of 1 μM to 0.0001 nM, thereby binding to the antigen. Anti-human Fc-HRP was used as a secondary antibody for antibody detection. Color was developed using ABTS, which is a color developing reagent, and the absorbance at 405 nm was measured.

mouse CNTN4-10xHis = molecular target: T2, mouse CNTN4-10xHis; assay: as above
Protocol: as §1

Human CNTN-4 protein = molecular target: T3, Human CNTN-4 protein; assay: SPR, antibody captured by anti-human IgG Fc on CM5 chip, CNTN4 as analyte
Protocol: An SPR test was performed on L1H2, which is most humanized at about 98%, among the antibodies prepared in Example 3.1. More specifically, in order to bind anti-human IgG Fc (capture antibody) using amine coupling, CM5 chip was mounted, running buffer was allowed to flow, the chip was activated, and then capture antibody was attached thereto. Dextrin to which capture antibody was not attached was deactivated using ethanolamine, and then regeneration was performed using 3M magnesium chloride to clear analyte except capture antibody. The L1H2 prepared at a concentration of 0.05 μg/mL was allowed to flow for 30 seconds at a rate of 10 μL/min for binding. Thereafter, human CNTN4 (400 nM to 0.78 nM) prepared by sequential dilution as an antigen was allowed to flow at a rate of 30 μL/min for 3 minutes to be bound, and dissociation was performed for 5 minutes. Then, in order to clear all analytes attached to the capture antibody, a regeneration solution (3M magnesium chloride) was allowed to flow at a rate of 20 μL/min for 30 seconds, and regeneration was performed. For each concentration of antigen, binding of L1H2, binding of antigen, dissociation, and regeneration were repeated in order.

Row | Binder | EC50 (human CNTN4-10xHis) | EC50 (mouse CNTN4-10xHis) | fold difference in binding ability against A-01 (human CNTN4-10xHis) | fold difference in binding ability against A-01 (mouse CNTN4-10xHis) | Kd (Human CNTN-4 protein)
1 | anti-CNTN4 humanized antibody LAH2 (antibody, V domains shown, in the form of IgG4) VH: EVQLLESEGGLVQPGGSLRLSCAASGFTFSSFNMFWVRQAPGKGLEWVAEISGGGGSTWYAPAVKGRATISRDNSKNTVYLQMNSLRAEDTAVYYCAKSADTWSYGAATIDAWGQGTLVTVSS VL: ALTQPSSVSANLGETVKITCSGSSGSYGWYQQKSPGSAPVTLIYDNTNRPSDIPSRFSGSGSGSTGTLTITGVRAEDEAVYYCGGYDGSTDVFGAGTTLTVL | 0.017 nM | 0.017 nM | – | – | –
2 | anti-CNTN4 humanized antibody L1H2 (antibody, V domains shown, in the form of IgG4) VH: EVQLLESEGGLVQPGGSLRLSCAASGFTFSSFNMFWVRQAPGKGLEWVAEISGGGGSTWYAPAVKGRATISRDNSKNTVYLQMNSLRAEDTAVYYCAKSADTWSYGAATIDAWGQGTLVTVSS VL: ELTQDPAVSVALGQTVRITCSGSSGSYGWYQQKPGQAPVLVIYDNTNRPSGIPDRFSGSSSGNTASLTITGAQAEDEADYYCGGYDGSTDVFGGGTKLTVL | 0.028 nM | 0.029 nM | ≤ 3 times | ≤ 3 times | 93.2 nM
3 | anti-CNTN4 humanized antibody L2H2 (antibody, V domains shown, in the form of IgG4) VH: EVQLLESEGGLVQPGGSLRLSCAASGFTFSSFNMFWVRQAPGKGLEWVAEISGGGGSTWYAPAVKGRATISRDNSKNTVYLQMNSLRAEDTAVYYCAKSADTWSYGAATIDAWGQGTLVTVSS VL: ELTQDPAVSVALGQTVRITCSGSSGSYGWYQQKPGQAPVTLIYDNTNRPSGIPDRFSGSSSGSTGSLTITGAQAEDEADYYCGGYDGSTDVFGGGTKLTVL | 0.018 nM | 0.019 nM | – | – | –
